Tests used:
[1] = test system: L. monocytogenes HER1084; experiment: ΔPlySs1 OD600 lysis, 1 hr; format: cell-based
[2] = test system: S. pneumoniae R36; experiment: ΔPlySs1 OD600 lysis, 1 hr; format: cell-based

B1: ΔPlySs1: truncated PlySs1 lysin with N-terminal enzymatic and central binding domains, N-terminal 254 amino acids, SEQ ID NO:2 (protein, listed as Streptococcus suis)
chain: MTINLETSIRWMSDRVGKVSYSMDYRNGPNSYDCSSAVYYALMAGGAISAGWAVNTEYMHDWLIRNGYVLVAENKPFNAQRHDVCILGKRGYSSGAGGHVVIFVDNVNVIHCNYARNGISIDNYNQVHRGMYYYLYRPANQPSISNKSLDQLVKETLAGVHGNGDTRKASLGSQYEAVMAVINGKASASEKSDEELAREVLAGKHGAGEDRKRSLGPRYEPVQAKVNELLKAKEKPSETAKNEPQTVQFKEDGDL
[1]; 6.5 μg/ml
  1-hour treated/untreated OD600-ratio: 0.63
[1]; 13 μg/ml
  1-hour treated/untreated OD600-ratio: 0.52
[1]; 30 μg/ml
  1-hour treated/untreated OD600-ratio: 0.26
[1]; 65 μg/ml
  1-hour treated/untreated OD600-ratio: 0.14
[1]; 130 μg/ml
  1-hour treated/untreated OD600-ratio: 0.04
[2]; 6.5 μg/ml
  1-hour treated/untreated OD600-ratio: 0.25
[2]; 13 μg/ml
  1-hour treated/untreated OD600-ratio: 0.22
[2]; 30 μg/ml
  1-hour treated/untreated OD600-ratio: 0.14
[2]; 65 μg/ml
  1-hour treated/untreated OD600-ratio: 0.16
[2]; 130 μg/ml
  1-hour treated/untreated OD600-ratio: 0.12

Source: patent publication US20140179594A1, “STREPTOCOCCUS BACTERIOPHAGE LYSINS FOR TREATMENT OF GRAM POSITIVE BACTERIA IN COMPANION ANIMALS AND LIVESTOCK” (priority 2011, published 2014)
